Test results reported in patent EP4768505A1 (Shenzhen Genocury Biotech Co., Ltd, dated 2026).

What was measured:
[1] = target: Human CD79B Protein, His Tag (MALS verified), Cat. No. #CDB-H52H3-1mg, ACRO (human) (UniProt P40259); assay: ELISA on coated antigen, anti-myc detection; 2ng antibody added
[2] = target: T1, Mouse CD79A+CD79B antigen (mouse) (UniProt P11911); assay: as above
T1 sequence (looked up) 1: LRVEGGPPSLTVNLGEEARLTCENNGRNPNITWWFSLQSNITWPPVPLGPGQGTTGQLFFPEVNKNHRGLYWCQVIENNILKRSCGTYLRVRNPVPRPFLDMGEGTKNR
T1 sequence (looked up) 2: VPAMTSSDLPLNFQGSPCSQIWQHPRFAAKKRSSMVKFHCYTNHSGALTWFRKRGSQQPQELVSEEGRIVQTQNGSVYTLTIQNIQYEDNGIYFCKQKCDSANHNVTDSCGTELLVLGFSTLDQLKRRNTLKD

[3] = target: Human CD79A+CD79B antigen (human) (UniProt P11912); assay: as above
[4] = target: T2, Mouse CD79B antigen (mouse, UniProt P15530 26-158, limits assumed); assay: as above
T2 sequence (looked up): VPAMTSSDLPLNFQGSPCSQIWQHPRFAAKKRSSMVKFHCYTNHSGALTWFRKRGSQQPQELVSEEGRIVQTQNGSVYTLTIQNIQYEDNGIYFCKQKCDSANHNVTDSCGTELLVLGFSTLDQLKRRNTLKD

[5] = target: Human CD79B Protein, His Tag (MALS verified), Cat. No. #CDB-H52H3-1mg, ACRO (human) (UniProt P40259); assay: ELISA on coated antigen, anti-myc detection; 20ug antibody added
[6] = target: T1, Mouse CD79A+CD79B antigen (mouse); assay: as above
[7] = target: Human CD79A+CD79B antigen (human) (UniProt P11912); assay: as above
[8] = target: T2, Mouse CD79B antigen; assay: as above
[9] = target: BSA (UniProt P02769); assay: ELISA on coated BSA control, anti-myc detection; 200ng antibody added
[10] = target: BSA (UniProt P02769); assay: ELISA on coated BSA control, anti-myc detection; 2ug antibody added
[11] = target: Human CD79B Protein, His Tag (MALS verified), Cat. No. #CDB-H52H3-1mg, ACRO (human) (UniProt P40259); assay: ELISA on coated antigen, anti-myc detection; 20ng antibody added
[12] = target: T1, Mouse CD79A+CD79B antigen (mouse); assay: as above
[13] = target: Human CD79A+CD79B antigen (human) (UniProt P11912); assay: as above
[14] = target: T2, Mouse CD79B antigen; assay: as above
[15] = target: BSA (UniProt P02769); assay: ELISA on coated BSA control, anti-myc detection; 20ng antibody added
[16] = target: Human CD79B Protein, His Tag (MALS verified), Cat. No. #CDB-H52H3-1mg, ACRO (human) (UniProt P40259); assay: ELISA on coated antigen, anti-myc detection; 200ng antibody added
[17] = target: T1, Mouse CD79A+CD79B antigen (mouse); assay: as above
[18] = target: Human CD79A+CD79B antigen (human) (UniProt P11912); assay: as above
[19] = target: T2, Mouse CD79B antigen; assay: as above
[20] = target: BSA (UniProt P02769); assay: ELISA on coated BSA control, anti-myc detection; 200pg antibody added
[21] = target: Human CD79B Protein, His Tag (MALS verified), Cat. No. #CDB-H52H3-1mg, ACRO (human) (UniProt P40259); assay: ELISA on coated antigen, anti-myc detection; 200pg antibody added
[22] = target: T1, Mouse CD79A+CD79B antigen (mouse); assay: as above
[23] = target: Human CD79A+CD79B antigen (human) (UniProt P11912); assay: as above
[24] = target: T2, Mouse CD79B antigen; assay: as above
[25] = target: Human CD79B Protein, His Tag (MALS verified), Cat. No. #CDB-H52H3-1mg, ACRO (human) (UniProt P40259); assay: ELISA on coated antigen, anti-myc detection; 2ug antibody added
[26] = target: T1, Mouse CD79A+CD79B antigen (mouse); assay: as above
[27] = target: Human CD79A+CD79B antigen (human) (UniProt P11912); assay: as above
[28] = target: T2, Mouse CD79B antigen; assay: as above
[29] = target: T3, human CD79B antigen (a full-length protein containing signal peptide, UniProt ID: P40259) on cells (human, UniProt P40259 29-229); assay: flow cytometry on HEK-293T cells overexpressing CD79B-GFP, 0.1 mg/mL, APC-His tag antibody
T3 construct: whole, on cells; Used for the flow cytometry on transfected HEK-293T cells; F2A residues left at the C-terminus after cleavage are not described; also called CD79B-GFP molecule; HEK-293T cells overexpressing the CD79B-GFP molecule
T3 sequence (looked up): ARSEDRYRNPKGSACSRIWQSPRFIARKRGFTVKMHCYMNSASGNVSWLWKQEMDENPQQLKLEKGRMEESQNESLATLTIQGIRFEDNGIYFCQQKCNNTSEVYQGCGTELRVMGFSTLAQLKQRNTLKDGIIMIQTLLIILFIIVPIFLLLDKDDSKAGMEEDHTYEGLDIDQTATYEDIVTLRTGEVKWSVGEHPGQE

[30] = target: BSA (UniProt P02769); assay: ELISA on coated BSA control, anti-myc detection; 2ng antibody added
[31] = target: BSA (UniProt P02769); assay: ELISA on coated BSA control, anti-myc detection; 20ug antibody added
[32] = target: T2, Mouse CD79B antigen; assay: ELISA on coated antigen, anti-myc detection
[33] = target: BSA (UniProt P02769); assay: ELISA on coated BSA control, anti-myc detection; 200µg [sic] antibody added (lowest step of the dilution series)
[34] = target: Human CD79B Protein, His Tag (MALS verified), Cat. No. #CDB-H52H3-1mg, ACRO (human) (UniProt P40259); assay: ELISA on coated antigen, anti-myc detection; 200µg [sic] antibody added (lowest step of the dilution series)
[35] = target: T1, Mouse CD79A+CD79B antigen (mouse); assay: as above
[36] = target: Human CD79A+CD79B antigen (human) (UniProt P11912); assay: as above

Sequence of BSA (P02769 25-607 limits assumed): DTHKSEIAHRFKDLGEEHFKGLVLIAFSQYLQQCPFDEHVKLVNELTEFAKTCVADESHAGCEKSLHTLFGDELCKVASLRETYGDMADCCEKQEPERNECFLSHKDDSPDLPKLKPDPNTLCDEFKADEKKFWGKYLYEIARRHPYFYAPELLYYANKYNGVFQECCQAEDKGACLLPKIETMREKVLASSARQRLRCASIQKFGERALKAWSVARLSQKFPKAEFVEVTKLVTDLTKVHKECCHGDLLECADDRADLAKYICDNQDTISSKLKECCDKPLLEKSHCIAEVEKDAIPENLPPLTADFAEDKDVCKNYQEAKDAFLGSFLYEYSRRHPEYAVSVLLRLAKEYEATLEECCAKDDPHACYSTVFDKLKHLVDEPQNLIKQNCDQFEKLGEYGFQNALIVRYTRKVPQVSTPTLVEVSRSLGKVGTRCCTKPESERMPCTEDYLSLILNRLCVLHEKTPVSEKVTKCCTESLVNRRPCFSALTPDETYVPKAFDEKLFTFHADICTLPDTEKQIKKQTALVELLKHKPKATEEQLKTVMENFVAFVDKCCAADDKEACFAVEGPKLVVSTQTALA

| Binder | OD450 nm [1] [OD450] | OD450 nm [2] [OD450] | OD450 nm [3] [OD450] | OD450 nm [5] [OD450] | OD450 nm [6] [OD450] | OD450 nm [7] [OD450] | OD450 nm [9] [OD450] | OD450 nm [10] [OD450] | OD450 nm [11] [OD450] | OD450 nm [12] [OD450] | OD450 nm [13] [OD450] | OD450 nm [15] [OD450] | OD450 nm [16] [OD450] | OD450 nm [17] [OD450] | OD450 nm [18] [OD450] | OD450 nm [25] [OD450] | OD450 nm [26] [OD450] | OD450 nm [27] [OD450] | binding result [29] | OD450 nm [30] [OD450] | further results |
| --- | --- | --- | --- | --- | --- | --- | --- | --- | --- | --- | --- | --- | --- | --- | --- | --- | --- | --- | --- | --- | --- |
| anti-CD79B single-domain antibody JYB10 (VHH, Alpaca VHH from a phage library; ELISA detected with an anti-myc antibody; a myc tag is not described; not shown: His-tag protein at the C-terminal end) VHH: DVQLQESGGGLVQPGGSLSLSCAASISSSSIWVRAWHRQAPGKQRELVAAINNDGQTMYADSVKGRFTISRDNAKTTVSLQMNSLKPEDTAVYYCNVVTPKGHQYWGQGTQVTVSS | 0.0517 | 0.0584 | 0.0596 | 0.285 | 0.126 | 0.816 | 0.0473 | 0.0482 | 0.0739 | 0.0609 | 0.0687 | 0.0474 | 0.144 | 0.0601 | 0.224 | 0.221 | 0.0788 | 0.554 | binds | 0.0486 | OD450 nm [4]: 0.0512 OD450; OD450 nm [8]: 0.0982 OD450; OD450 nm [14]: 0.0517 OD450; OD450 nm [19]: 0.0527 OD450; OD450 nm [20]: 0.0488 OD450; OD450 nm [21]: 0.0496 OD450; OD450 nm [22]: 0.0584 OD450; OD450 nm [23]: 0.0573 OD450; OD450 nm [24]: 0.0517 OD450; OD450 nm [28]: 0.0588 OD450; OD450 nm [31]: 0.0493 OD450 |
| anti-CD79B single-domain antibody JYB11 (VHH, Alpaca VHH from a phage library; ELISA detected with an anti-myc antibody; a myc tag is not described; not shown: His-tag protein at the C-terminal end) VHH: DVQLQESGGGLVQPGGSLSLSCAASMSSPSLWVRAWHRQAPGKQRELVAAINSDGQTMYADSVKGRFTISRDNAKTLVSLQMDSLKPEDTAVYYCNVVTPRGQQYWGQGTQVTVSS | 0.0528 | 0.0582 | 0.0567 | 0.379 | 0.0981 | 0.612 | 0.048 | 0.0483 | 0.0947 | 0.0575 | 0.0778 | 0.0471 | 0.177 | 0.0589 | 0.271 | 0.303 | 0.0651 | 0.519 | binds | 0.0485 | binding result [32]: no binding (tested: 20ug); OD450 nm [33]: 0.0469 OD450; OD450 nm [34]: 0.0516 OD450; OD450 nm [35]: 0.0586 OD450; OD450 nm [36]: 0.0556 OD450; OD450 nm [31]: 0.0489 OD450 |
| anti-CD79B single-domain antibody JYB4 (VHH, Alpaca VHH from a phage library; not shown: His-tag protein at the C-terminal end) VHH: DVQLQESGGGLVQPGGSLRLSCAASGFAFSLYAMSWARQAPGKGLEWVSDIYGDDDSRRNYADSVKGRFTISRDNAKNTVYLQMTNLQPEDTALYYCGKGRDGTRWSAREYEYRGQGTQVTVSS | 0.0519 | 0.0574 | 0.063 | 0.552 | 0.049 | 0.658 | 0.049 | 0.0479 | 0.15 | 0.0572 | 0.172 | 0.0499 | 0.375 | 0.0567 | 0.421 | 0.485 | 0.0549 | 0.585 | binds | 0.0479 | binding result [32]: no binding (tested: 20ug); OD450 nm [20]: 0.0476 OD450; OD450 nm [21]: 0.0521 OD450; OD450 nm [22]: 0.0601 OD450; OD450 nm [23]: 0.0577 OD450; OD450 nm [31]: 0.0488 OD450 |
